Reference: the Human Domainome abundance scans (Beltran et al. 2025)
± gives the uncertainty stated by the source.

B1: Dynamin-binding protein, residues 242 to 304; numbered along this chain, Q6XZF7 (parent)
chain: EEPGTYGVALYRFQALEPNELDFEVGDKIRILATLEDGWLEGSLKGRTGIFPYRFVKLCPDTR

Variants of: B1
Assay: abundance fitness (aPCA) (normalised: wild type 0, dead -1); higher = more abundant; growth selection in yeast, the domain comes from the species named
Conditions: Homo sapiens
Work on P60T yielded an abundance fitness of 0.088 ± 0.07. In the case of P60V, the abundance fitness is reported as -0.174 ± 0.053. P60L showed an abundance fitness of -0.434 ± 0.077. In the case of P3E, the abundance fitness is reported as -0.033 ± 0.35. P3T showed an abundance fitness of 0.126 ± 0.075. P3Q showed an abundance fitness of -0.026 ± 0.14. P3G showed an abundance fitness of -0.222 ± 0.08. Variant P3M has an abundance fitness of 0.207 ± 0.15. With P3K the abundance fitness was 0.18 ± 0.16. Variant F13L has an abundance fitness of -0.74 ± 0.11. F13G showed an abundance fitness of -0.677 ± 0.085. F13M showed an abundance fitness of -0.072 ± 0.11. For F13W, the abundance fitness was -0.483 ± 0.23. A15M gave an abundance fitness of -0.639 ± 0.31. A15W showed an abundance fitness of -0.637 ± 0.23. A15P showed an abundance fitness of -0.355 ± 0.12. Variant A15E has an abundance fitness of -0.734 ± 0.26. In the case of A15L, the abundance fitness is reported as -0.626 ± 0.11. R54D showed an abundance fitness of -0.052 ± 0.057. Variant R54M has an abundance fitness of -0.583 ± 0.16. With R54A the abundance fitness was -0.049 ± 0.063. Work on R54L yielded an abundance fitness of -0.544 ± 0.091. R54G showed an abundance fitness of -0.034 ± 0.046. For R54V, the abundance fitness was -0.07 ± 0.1. R54E showed an abundance fitness of -0.057 ± 0.13. V56D gave an abundance fitness of -0.716 ± 0.099. Variant V56L has an abundance fitness of -0.412 ± 0.093. Work on V56F yielded an abundance fitness of -0.525 ± 0.07. For E36Q, the abundance fitness was -0.312 ± 0.24. E36T gave an abundance fitness of -0.277 ± 0.089. E36W gave an abundance fitness of -0.612 ± 0.18. In the case of E36A, the abundance fitness is reported as 0.027 ± 0.063. Work on G49P yielded an abundance fitness of -1.08 ± 0.33. Variant G49S has an abundance fitness of -0.504 ± 0.088. Variant G49L has an abundance fitness of -0.887 ± 0.16. With G49T the abundance fitness was -0.829 ± 0.18. K28N showed an abundance fitness of -0.418 ± 0.086. K28D gave an abundance fitness of -0.799 ± 0.15. Work on K28M yielded an abundance fitness of -0.529 ± 0.19. For K28I, the abundance fitness was -0.278 ± 0.084. Variant P18V has an abundance fitness of -0.332 ± 0.062. For P18Q, the abundance fitness was -0.042 ± 0.2. Work on P18Y yielded an abundance fitness of -0.473 ± 0.077. P18R showed an abundance fitness of -0.04 ± 0.053. Work on P18N yielded an abundance fitness of -0.275 ± 0.071. Work on G46W yielded an abundance fitness of -0.725 ± 0.12. Work on G46M yielded an abundance fitness of -0.769 ± 0.17. For G46H, the abundance fitness was -0.73 ± 0.077. For G46N, the abundance fitness was -0.326 ± 0.048. G46A showed an abundance fitness of -0.647 ± 0.051. With G46V the abundance fitness was -0.6 ± 0.041. For G46D, the abundance fitness was -0.444 ± 0.047. Variant G46I has an abundance fitness of -0.711 ± 0.059. In the case of S43P, the abundance fitness is reported as -0.945 ± 0.21. In the case of S43Y, the abundance fitness is reported as -0.085 ± 0.055. For S43V, the abundance fitness was -0.326 ± 0.063. For S43R, the abundance fitness was -0.346 ± 0.076. In the case of S43L, the abundance fitness is reported as -0.368 ± 0.082. For S43N, the abundance fitness was -0.308 ± 0.064. With S43D the abundance fitness was -0.32 ± 0.069. In the case of S43K, the abundance fitness is reported as -0.148 ± 0.15. For S43I, the abundance fitness was -0.539 ± 0.082. In the case of S43H, the abundance fitness is reported as -0.373 ± 0.089. S43Q showed an abundance fitness of -0.133 ± 0.16. Y11L gave an abundance fitness of -0.084 ± 0.056. Work on Y11H yielded an abundance fitness of 0.022 ± 0.067. Y11T gave an abundance fitness of 0.044 ± 0.06. With Y11G the abundance fitness was -0.429 ± 0.067. In the case of Y11S, the abundance fitness is reported as -0.196 ± 0.045. Work on Y11M yielded an abundance fitness of -0.024 ± 0.11. Y11F gave an abundance fitness of 0.01 ± 0.048. Work on R63V yielded an abundance fitness of -0.056 ± 0.079. Work on R63I yielded an abundance fitness of -0.012 ± 0.061. Work on R63S yielded an abundance fitness of 0.15 ± 0.055. For R63Q, the abundance fitness was -0.184 ± 0.19. In the case of R63G, the abundance fitness is reported as 0.119 ± 0.083. With R63D the abundance fitness was 0.125 ± 0.087. For L58T, the abundance fitness was -0.301 ± 0.072. In the case of L58E, the abundance fitness is reported as -0.708 ± 0.17. Variant L58F has an abundance fitness of -0.186 ± 0.048. L58I showed an abundance fitness of -0.055 ± 0.056. L58K showed an abundance fitness of -0.55 ± 0.14. Variant L58C has an abundance fitness of -0.409 ± 0.06. Variant K45D has an abundance fitness of 0.104 ± 0.075. K45I showed an abundance fitness of -0.696 ± 0.095. E41D showed an abundance fitness of -0.732 ± 0.14. For E41K, the abundance fitness was 0.017 ± 0.19. For E41I, the abundance fitness was -0.465 ± 0.08. E41P gave an abundance fitness of -0.669 ± 0.16. With E41Q the abundance fitness was -0.064 ± 0.14. Work on K57D yielded an abundance fitness of -0.257 ± 0.055. Work on K57T yielded an abundance fitness of -0.167 ± 0.058. K57H showed an abundance fitness of -0.136 ± 0.057. Variant K57P has an abundance fitness of -0.746 ± 0.12. E2A gave an abundance fitness of -0.586 ± 0.099. Work on E2W yielded an abundance fitness of 0.044 ± 0.29. For E2L, the abundance fitness was -0.011 ± 0.066. For E2Y, the abundance fitness was 0.015 ± 0.056. E2Q gave an abundance fitness of -0.498 ± 0.19. With E2I the abundance fitness was -0.013 ± 0.072. For C59R, the abundance fitness was -0.339 ± 0.062. With C59I the abundance fitness was 0.038 ± 0.061. Variant C59D has an abundance fitness of -0.198 ± 0.066. E24W gave an abundance fitness of -0.438 ± 0.15. Variant E24C has an abundance fitness of -0.414 ± 0.062. E24P gave an abundance fitness of -0.75 ± 0.14. E24L showed an abundance fitness of -0.491 ± 0.082. Work on E24D yielded an abundance fitness of 0.009 ± 0.055. Work on E24Q yielded an abundance fitness of -0.024 ± 0.15. Variant E24H has an abundance fitness of -0.199 ± 0.075. For E24A, the abundance fitness was -0.593 ± 0.086. Work on E24I yielded an abundance fitness of -0.444 ± 0.083. Work on N19M yielded an abundance fitness of -0.494 ± 0.31. Variant N19T has an abundance fitness of -0.223 ± 0.076. N19Y gave an abundance fitness of -0.299 ± 0.059. With N19S the abundance fitness was -0.275 ± 0.05. N19I showed an abundance fitness of -0.644 ± 0.087. Variant N19Q has an abundance fitness of -0.188 ± 0.23. In the case of N19G, the abundance fitness is reported as -0.055 ± 0.048. In the case of I31C, the abundance fitness is reported as -0.527 ± 0.078. I31Y showed an abundance fitness of -0.91 ± 0.12. I31K gave an abundance fitness of -0.85 ± 0.31. In the case of I31G, the abundance fitness is reported as -0.512 ± 0.077. For I31E, the abundance fitness was -0.587 ± 0.27. For L32H, the abundance fitness was -0.008 ± 0.062. L32F showed an abundance fitness of -0.652 ± 0.086. For L32V, the abundance fitness was -0.176 ± 0.051. For L32A, the abundance fitness was -0.866 ± 0.13. With T62I the abundance fitness was -0.034 ± 0.055. In the case of T62N, the abundance fitness is reported as 0.105 ± 0.052. With T62Q the abundance fitness was -0.092 ± 0.1. For T62E, the abundance fitness was -0.004 ± 0.17. In the case of Y53N, the abundance fitness is reported as 0.138 ± 0.068. Y53Q showed an abundance fitness of 0.154 ± 0.18. Variant Y53V has an abundance fitness of 0.263 ± 0.052. In the case of Y53H, the abundance fitness is reported as -0.006 ± 0.082. With L44P the abundance fitness was -0.575 ± 0.23. Variant L44R has an abundance fitness of -0.367 ± 0.099. F23I gave an abundance fitness of -0.165 ± 0.062. F23D gave an abundance fitness of -0.867 ± 0.14. Variant F23T has an abundance fitness of -0.775 ± 0.12. F23M gave an abundance fitness of -0.227 ± 0.13. In the case of F23Y, the abundance fitness is reported as -0.688 ± 0.1. Work on E17R yielded an abundance fitness of 0.151 ± 0.053. Work on E17A yielded an abundance fitness of 0.029 ± 0.059. In the case of E17F, the abundance fitness is reported as -0.513 ± 0.067. In the case of E17C, the abundance fitness is reported as -0.259 ± 0.057. E17H gave an abundance fitness of 0.229 ± 0.056. Work on G26I yielded an abundance fitness of -0.744 ± 0.094. With G26Q the abundance fitness was -0.061 ± 0.2. For G26P, the abundance fitness was -1.07 ± 0.22. For G26H, the abundance fitness was -0.718 ± 0.11. Variant G26K has an abundance fitness of -0.643 ± 0.39. With G26L the abundance fitness was -0.598 ± 0.087. G26R showed an abundance fitness of -0.866 ± 0.099. Variant G26Y has an abundance fitness of -0.847 ± 0.17. G26V showed an abundance fitness of -0.844 ± 0.086. For G26S, the abundance fitness was -0.674 ± 0.069. Variant G26N has an abundance fitness of -0.563 ± 0.087. For W39A, the abundance fitness was -0.56 ± 0.085. With W39I the abundance fitness was -0.546 ± 0.075. For W39F, the abundance fitness was -0.168 ± 0.073. G4M gave an abundance fitness of 0.283 ± 0.28. In the case of G4C, the abundance fitness is reported as -0.135 ± 0.057. With G4A the abundance fitness was -0.095 ± 0.059. With G4Q the abundance fitness was 0.059 ± 0.15. Work on G4W yielded an abundance fitness of -0.312 ± 0.16.
